The target of this test is CD19 on CD19-positive human tumor cells (Raji, Raji-Luc, NALM6, Reh) (human) (UniProt P15391). As to the kind of experiment: cell-based or functional assay.
Chain of CD19 on CD19-positive human tumor cells (Raji, Raji-Luc, NALM6, Reh) (human) (P15391 20-556): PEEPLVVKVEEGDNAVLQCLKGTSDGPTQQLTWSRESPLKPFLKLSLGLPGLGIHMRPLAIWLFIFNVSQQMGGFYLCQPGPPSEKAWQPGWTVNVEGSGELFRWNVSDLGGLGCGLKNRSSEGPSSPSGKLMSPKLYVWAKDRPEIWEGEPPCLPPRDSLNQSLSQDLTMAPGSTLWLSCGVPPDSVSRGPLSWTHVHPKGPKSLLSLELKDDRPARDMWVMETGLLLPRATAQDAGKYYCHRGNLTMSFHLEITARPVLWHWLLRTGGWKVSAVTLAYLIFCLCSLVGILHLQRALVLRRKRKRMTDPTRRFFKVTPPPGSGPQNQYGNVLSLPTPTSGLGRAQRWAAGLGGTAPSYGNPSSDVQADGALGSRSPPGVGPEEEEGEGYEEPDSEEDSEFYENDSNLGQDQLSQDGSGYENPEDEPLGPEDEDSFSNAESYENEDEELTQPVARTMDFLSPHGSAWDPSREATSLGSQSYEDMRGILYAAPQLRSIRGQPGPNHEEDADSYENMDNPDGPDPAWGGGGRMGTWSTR

For the substance “bispecific antibody blinatumomab (Blincyto, Amgen)”, the EC50 of activation of NFAT-RE luciferase reporter Jurkat T cells in the presence of Raji target cells was 2.71 nM, the EC50 to mediate CIK to kill different tumor cells (NALM6) was found to be 0.0773 nM, the EC50 to mediate CIK to kill different tumor cells (Reh) was 0.0119 nM and the EC50 to mediate CIK to kill tumor cells (Raji-LUC) turned out to be 0.000595 nM. In addition, the EC50 to mediate CIK to kill tumor cells (Raji-LUC, second row without label) is 0.00565 nM; the EC50 to mediate PBMCs to kill tumor cells (Raji-LUC) is 0.00545 nM; the EC50 to mediate PBMCs to kill tumor cells (Raji-LUC, second row without label) is 0.0212 nM; the EC50 to mediate PBMCs to kill tumor cells (Raji-LUC, third row without label) was found to be 0.0226 nM.

The values above are taken from patent publication US20220002407A1.
